molecular target: ncor2_human NCOR2 (UniProt Q9Y618)
Sequence (Q9Y618 whole entry): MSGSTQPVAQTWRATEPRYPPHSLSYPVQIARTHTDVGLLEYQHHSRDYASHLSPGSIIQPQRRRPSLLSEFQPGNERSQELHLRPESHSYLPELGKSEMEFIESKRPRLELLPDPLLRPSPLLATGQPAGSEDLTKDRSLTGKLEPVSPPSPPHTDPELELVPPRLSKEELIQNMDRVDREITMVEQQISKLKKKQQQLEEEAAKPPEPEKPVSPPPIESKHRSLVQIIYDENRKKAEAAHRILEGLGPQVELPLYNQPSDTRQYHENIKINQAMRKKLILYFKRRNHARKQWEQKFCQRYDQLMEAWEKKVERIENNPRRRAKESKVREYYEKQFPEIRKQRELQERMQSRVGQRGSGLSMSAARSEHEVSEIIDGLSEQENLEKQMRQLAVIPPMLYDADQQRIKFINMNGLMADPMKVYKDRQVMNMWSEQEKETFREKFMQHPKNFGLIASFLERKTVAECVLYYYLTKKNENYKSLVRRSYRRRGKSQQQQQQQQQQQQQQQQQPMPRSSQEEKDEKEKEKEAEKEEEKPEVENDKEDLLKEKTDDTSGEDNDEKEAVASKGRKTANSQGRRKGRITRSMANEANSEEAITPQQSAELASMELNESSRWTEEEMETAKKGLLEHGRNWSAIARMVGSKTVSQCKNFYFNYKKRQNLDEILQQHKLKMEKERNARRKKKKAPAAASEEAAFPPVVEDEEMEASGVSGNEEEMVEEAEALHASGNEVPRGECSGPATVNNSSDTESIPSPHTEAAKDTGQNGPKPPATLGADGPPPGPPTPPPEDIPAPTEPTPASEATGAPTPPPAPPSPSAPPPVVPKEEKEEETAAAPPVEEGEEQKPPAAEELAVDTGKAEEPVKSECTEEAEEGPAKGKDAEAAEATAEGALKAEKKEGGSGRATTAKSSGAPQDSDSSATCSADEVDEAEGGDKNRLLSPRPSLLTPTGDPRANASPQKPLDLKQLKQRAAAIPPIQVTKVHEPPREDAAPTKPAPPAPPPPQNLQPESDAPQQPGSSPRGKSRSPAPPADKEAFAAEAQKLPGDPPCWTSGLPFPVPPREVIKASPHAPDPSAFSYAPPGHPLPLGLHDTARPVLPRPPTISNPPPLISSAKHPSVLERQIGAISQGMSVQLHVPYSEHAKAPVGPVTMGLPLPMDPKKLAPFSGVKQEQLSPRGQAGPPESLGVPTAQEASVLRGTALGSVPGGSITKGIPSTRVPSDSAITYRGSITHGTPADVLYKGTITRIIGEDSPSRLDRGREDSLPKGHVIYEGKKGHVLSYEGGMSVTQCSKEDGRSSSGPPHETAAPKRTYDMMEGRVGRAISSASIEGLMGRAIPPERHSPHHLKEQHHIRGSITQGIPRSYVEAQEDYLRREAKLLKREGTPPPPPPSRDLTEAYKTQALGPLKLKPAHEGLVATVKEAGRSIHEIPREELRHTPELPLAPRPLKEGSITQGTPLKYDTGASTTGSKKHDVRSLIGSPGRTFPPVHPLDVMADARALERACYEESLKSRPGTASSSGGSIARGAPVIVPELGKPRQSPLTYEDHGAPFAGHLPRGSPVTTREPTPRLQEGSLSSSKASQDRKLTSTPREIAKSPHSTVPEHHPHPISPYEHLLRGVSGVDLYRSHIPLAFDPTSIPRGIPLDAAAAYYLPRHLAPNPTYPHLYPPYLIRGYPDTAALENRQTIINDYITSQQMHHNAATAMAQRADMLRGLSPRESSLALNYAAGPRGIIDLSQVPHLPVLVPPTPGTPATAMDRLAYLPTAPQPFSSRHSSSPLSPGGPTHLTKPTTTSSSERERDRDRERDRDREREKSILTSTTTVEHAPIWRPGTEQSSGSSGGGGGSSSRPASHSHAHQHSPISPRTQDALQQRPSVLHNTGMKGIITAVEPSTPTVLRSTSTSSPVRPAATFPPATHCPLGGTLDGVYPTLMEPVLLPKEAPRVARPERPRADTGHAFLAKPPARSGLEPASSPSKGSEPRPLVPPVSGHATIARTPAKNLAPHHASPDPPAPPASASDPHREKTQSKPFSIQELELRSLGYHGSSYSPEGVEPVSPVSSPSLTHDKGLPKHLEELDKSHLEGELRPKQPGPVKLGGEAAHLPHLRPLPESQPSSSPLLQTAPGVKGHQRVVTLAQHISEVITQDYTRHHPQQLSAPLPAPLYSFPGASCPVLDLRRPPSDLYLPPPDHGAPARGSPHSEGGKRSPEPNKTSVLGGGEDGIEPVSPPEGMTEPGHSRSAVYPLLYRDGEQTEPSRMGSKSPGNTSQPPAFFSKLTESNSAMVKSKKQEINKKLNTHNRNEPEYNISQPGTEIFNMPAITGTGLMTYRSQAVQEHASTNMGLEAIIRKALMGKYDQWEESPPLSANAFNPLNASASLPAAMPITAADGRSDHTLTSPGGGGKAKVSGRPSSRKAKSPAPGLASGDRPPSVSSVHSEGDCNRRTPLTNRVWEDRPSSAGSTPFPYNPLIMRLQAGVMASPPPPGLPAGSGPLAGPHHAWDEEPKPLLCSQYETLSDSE

Substance | effect of a mutation on the interaction
Msx2-interacting protein (Homo sapiens), Q96T58 K3606A | disrupting interaction strength
Msx2-interacting protein (Homo sapiens), Q96T58 L3515A | decreasing interaction strength
Msx2-interacting protein (Homo sapiens), Q96T58 Q3551A | decreasing interaction strength
Msx2-interacting protein (Homo sapiens), Q96T58 R3552K | decreasing interaction strength

Results, then the substance that gave them:

effect of a mutation on the interaction | Substance
disrupting interaction strength | Msx2-interacting protein (Homo sapiens), Q96T58 K3516A
decreasing interaction strength | Msx2-interacting protein (Homo sapiens), Q96T58 M3553A
decreasing interaction strength | Msx2-interacting protein (Homo sapiens), Q96T58 R3548A
disrupting interaction strength | Msx2-interacting protein (Homo sapiens), Q96T58 R3552A
decreasing interaction strength | Msx2-interacting protein (Homo sapiens), Q96T58 R3554A
decreasing interaction strength | Msx2-interacting protein (Homo sapiens), Q96T58 Y3602A
